Experiment [1] addresses T1, α-thrombin (Homo sapiens, UniProt P00734).
T1 construct: α-Thrombin is the active form of the plasma serine protease zymogen, prothrombin; purchased Enzyme Research Labs (South Bend, Ind.)
The experiment is described as follows: Confirmatory binding assay in column chromatographic format, peptides synthesized on A-Totda-Toyopearl. The settings on record: for dose dependence of thrombin in the acid eluant (in words): 50, 100 and 200 μg α-thrombin; for binding of thrombin to peptide resin (in words): summary of Table 2. As for the experimental part:
Confirmatory binding assays were performed in a column chromatographic format on a microbore HPLC using individual peptide sequences synthesized directly onto the Toyopearl 650 M Chelate resin which had been modified with Totda followed by an alanine residue (A-Totda-Toyopearl), at a final substitution density of 0.2 mmol/g resin. […] The endpoint was a dose-dependent increase in the acid eluate in the thrombin contactings, and quantification was by integration of the absorbance at 280 nm.

In a further experiment the target is T2, thrombin (Homo sapiens, UniProt P00734).
T2 construct: from tissue
The experiment is described as follows: Purification of α-thrombin from activated PTC eluate on QLWGSH-A-Totda-Toyopearl. The format is binding. The settings on record: SDS-PAGE and western blot. As for the experimental part: Human pooled plasma was processed to PTC eluate by standard manufacturing techniques. In brief, DEAE-Sephadex resin was added to post cryoprecipitate eluant and loosely bound protein was washed away with a low salt buffer. Higher concentrations of NaCl eluted the fraction called PTC eluate which contains prothrombin and the vitamin K-dependent coagulation protease zymogens (factors VII, IX, X, protein C and protein S). A sample of PTC eluate was activated in the presence of 25% (w/w) sodium citrate for 4 days at room temperature. Approximately 1.0 ml of activated PTC eluate was injected onto the peptide resin QLWGSH-A-Totda-Toyopearl (FIG. 2 A). The column was washed with equilibration buffer (10 mM HEPES, pH 6.8, 1.0 mM EGTA and 0.1% v/v Tween-20) containing 1.0 M NaCl and then washed further with equilibration buffer containing 3.0 M NaCl. Acid treatment (2.5% acetic acid) was used to release protein from the peptide resin.

A further experiment deals with T3, prothrombin (Homo sapiens, UniProt P00734).
T3 construct: from tissue
The experiment in a line: Purification of prothrombin from PTC eluate on QLWGSH-A-Totda-Toyopearl. The format is binding. The settings on record: SDS-PAGE and western blot; released with 1 M NaCl. As for the experimental part:
Human pooled plasma was processed to PTC eluate by standard manufacturing procedures as indicated in Example 1. Approximately 1.0 ml of PTC eluate was injected onto the peptide resin QLWGSH-A-Totda-Toyopearl (FIG. 2 B). The column was washed with equilibration buffer containing 1.0 M NaCl and then containing 3.0 M NaCl. Acid treatment (2.5% acetic acid) was used to release protein from peptide resin.

Experiment [2] addresses T1, α-thrombin. The experiment in a line: Purification of α-thrombin from activated PTC eluate on YFPGPYL-Totda-Toyopearl. The format is binding. As for the experimental part:
Human pooled plasma was processed to PTC eluate by standard manufacturing procedures as indicated in Example 1. A sample of the PTC eluate was activated in the presence of 50 mM CaCl2 for 6 days at 4° C. Approximately 1 ml of the activated PTC eluate, spiked with 300 μg α-thrombin, was injected onto the peptide resin YFPGPYL-Totda-Toyopearl (FIG. 6). The column was washed with equilibration buffer (10 mM HEPES, pH 6.5, 10 mM CaCl2, 500 mM NaCl, 0.1% (v/v) PEG-400) until the A280 returned to base-line. […] Acid treatment (2% acetic acid) was used as a cleaning step to remove protein still bound to the column.

“And” between values parts separate entries of the source, which are not always exact repeats. Identical values can stand only once. Ends that are not written are not given here.

Consider “QLWGSH (not fully specified (C-terminus))”, for which the “Absorbance, 280 nm 2% Acetic Acid” value with α-thrombin [1] (50 μg α-thrombin applied, integration of A280) was 1.54 and 1.39; in the experiment with α-thrombin [1] (100 μg α-thrombin applied, integration of A280), 3.23 and 2.09; with α-thrombin [1] (200 μg α-thrombin applied, integration of A280), 6.92 and 3.71. Also, the “dose dependence of thrombin in the acid eluant (in words)” value with α-thrombin [1] is on record as “dose dependent increase”. Further, in the experiment with α-thrombin [1], the “binding of thrombin to peptide resin (in words)” value was “bound thrombin”. Further, the “binding and enrichment of thrombin from activated PTC eluate (in words)” value with thrombin was “bound and enriched thrombin”. Also, in the experiment with prothrombin, the “binding of prothrombin from unactivated PTC eluate (in words)” value is “prothrombin bound the peptide”.

For the substance “YFPGPYL (not fully specified (C-terminus))”, the figures for the “Absorbance, 280 nm 2% Acetic Acid” value in the experiment with α-thrombin [1] (50 μg α-thrombin applied in a solution containing 5 mg/ml hSA), in the experiment with α-thrombin [1] (100 μg α-thrombin applied in a solution containing 5 mg/ml hSA) and in the experiment with α-thrombin [1] (200 μg α-thrombin applied in a solution containing 5 mg/ml hSA) were 2.10, 2.93 and 4.72, respectively. In the experiment with α-thrombin [1], the “dose dependence of thrombin in the acid eluant (in words)” value is reported as “dose dependent increase”. The “binding of thrombin to peptide resin (in words)” value with α-thrombin [1] is given as “bound thrombin”. Besides, the “thrombin content of protein released by 1 mM sodium citrate pH 7.0” value with α-thrombin [2] (quantitative scanning of SDS-PAGE, activated PTC eluate spiked with 300 μg α-thrombin) is “at least 72%”. Moreover, in the experiment with α-thrombin [2] (released by 1 mM sodium citrate pH 7.0), the “binding of thrombin from activated PTC eluate (in words)” value was “thrombin bound”.

Values taken from patent US5831003A, “Peptides which bind to prothrombin and thrombin” (Bayer Corporation, priority 1996, dated 1998).
